According to publication PMC3646893, “Solution Structure and Rpn1 Interaction of the UBL Domain of Human RNA Polymerase II C-Terminal Domain Phosphatase” (PLoS ONE, 2013):

Molecular target: T1, Rpn1 regulatory subunit 1 (Rpn1 394-568), as used for NMR titration and ITC (human, UniProt Q13200 394-568)
T1 construct: source: E. coli BL21 (DE3), purified (size exclusion chromatography)
Experiment: ITC; VP-ITC, 25°C, NMR buffer; 20 µM Rpn1 regulatory subunit 1 in the cell, 25 injections of 6 µL of 400 µM UBL domain; one-site fit
Conditions: both partners purified

T1 sequence (Q13200 394-568): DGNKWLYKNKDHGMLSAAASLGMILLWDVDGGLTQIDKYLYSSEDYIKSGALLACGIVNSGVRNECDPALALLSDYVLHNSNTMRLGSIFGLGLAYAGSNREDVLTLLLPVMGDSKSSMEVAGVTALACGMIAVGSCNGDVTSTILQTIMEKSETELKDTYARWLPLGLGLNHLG

- Kd: 10.3 µM
- dH: -53.8 kcal/mol
B1: UBL domain of hUBLCP1 (UBLCP1 1-81), as used for NMR and ITC (domain or fragment, human, UniProt Q8WVY7 1-81, looked up)
chain: MALPIIVKWGGQEYSVTTLSEDDTVLDLKQFLKTLTGVLPERQKLLGLKVKGKPAENDVKLGALKLKPNTKIMMMGTREES
notes: UBL domain of human UBLCP1, residues 1-81; 15N-labelled (M9 medium) for the NMR titration; also called 15N-labeled UBL domain; source: E. coli BL21 (DE3), purified (size exclusion chromatography)
